In paper doi:10.1101/2020.08.31.276014 (bioRxiv, 2020):

Target: the molecule itself
Test: SDS-PAGE of unboiled samples

B1: unencapsulated (naked) DypB (Rv0799c) purified from E. coli (enzyme)
chain: MAVPAVSPQPILAPLTPAAIFLVATIGADGEATVHDALSKISGLVRAIGFRDPTKHLSVVVSIGSDAWDRLFAGPRPTELHPFVELTGPRHTAPATPGDLLFHIRAETMDVCFELAGRILKSMGDAVTVVDEVHGFRFFDNRDLLGFVDGTENPSGPIAIKATTIGDEDRNFAGSCYVHVQKYVHDMASWESLSVTEQERVIGRTKLDDIELDDNAKPANSHVALNVITDDDGTERKIVRHNMPFGEVGKGEYGTYFIGYSRTPTVTEQMLRNMFLGDPAGNTDRVLDFSTAVTGGLFFSPTIDFLDHPPPLPQAATPTLAAGSLSIGSLKGSPR
  stoichiometry N: 4
